First the molecules themselves.
B1: LINE1-full (parent)
chain: UACGUAGGUGGUUUUCCCCUGAUAGUGCUAAGGGGGCCUGGAAGUUUGGACUGGGCAGAGCUCAACACAGCGUGGCAAAGUGGCUGUGGCUAGACUGCCUCUCUGGAUUCCUCGUCACUCAGCAGGGCAUCUCUGAGAGAAAUGCC

In the series the parent is B1. Kind of series: self-cleavage, relative activity (ratio to wild type); higher = more cleavage; in vitro, sequencing; the parent is a self-cleaving ribozyme.
For the variant A6U C145U, the self-cleavage is 0.48. For U5C C71U the value was 0.68; for U5A A94G, 0.44; for U5A A94U, 0.32. U5C U132C: the self-cleavage came to 0.86.

For A6G C37A, the self-cleavage is 0.76. U5C A69U: the self-cleavage came out at 0.14.

As to G4C U96A, the self-cleavage was determined as 0.12. With G4A U87G the figure was 0.07; with U5G A124U, 0.96. With U5C C146U the figure was 0.69; with U5C A30G, 0.74; with U5C A30C, 0.28. Consider G4C A124G, for which the self-cleavage amounted to 0.48. Regarding A6G G106U, the self-cleavage is 1.06. For the variant A6G G106A, the self-cleavage came to 0.66. In the case of U5A C128U, the self-cleavage stood at 1.06. For the variant U5C U13A, the self-cleavage came out at 1.67. For A6G U23C the value was 0.93. For A6G G126A the value was 0.99; for A6G U132A, 1.04; for A6U G97A, 0.12. With A6G U130C the figure was 0.81; with U5C U23G, 1.53; with A6U U14C, 0.92. Take U5C A31U: the self-cleavage was 0.78. For U5C A31C, the self-cleavage worked out at 0.75. For A6G U20A the value was 1.05; for U5C G53U, 0.88; for G4C A64G, 1.25.

As to U5G U12C, the self-cleavage was 0.77. For A6U A138G the value was 1.15; for A6G A50G, 0.77; for A6G A50U, 0.51. With A6G A50C, the self-cleavage was 1.23. With U5C A24G the figure was 0.86; with A6G U15G, 0.97. Consider U5A U85A, for which the self-cleavage amounted to 0.14. With U5G U13C the figure was 0.83. Take A6C: the self-cleavage came out at 1.08. Take A6U: the self-cleavage was determined as 0.99. For A6G the value was 0.91. Regarding U5C A129G, the self-cleavage worked out at 1.43. For the variant A6G A129G, the self-cleavage came out at 0.26. For A6G A129U the value was 0.6.

Turning to A6G G97A, the self-cleavage was 0.18.

For the variant A6C A22G, the self-cleavage is 0.46. With A6G U46C the figure was 0.8; with A6G U46A, 0.94; with A6U U39A, 1.16. With A6U U39C the figure was 0.84; with A6U U100A, 0.52; with A6U U100C, 0.76. For the variant G4U A138U, the self-cleavage is 1.19. For U5C G126A the value was 1.36.

As to A6G U39A, the self-cleavage came out at 0.6. For A6U U12C the value was 1.43. With A6G G21U the figure was 0.53; with A6G U12C, 0.73. For the variant A6G U12G, the self-cleavage was found to be 0.85. With A6G C17U the figure was 0.28; with U5C U62C, 0.07; with A6G G122A, 0.55. For A6U C95A the value was 0.07; for A6U U15C, 1.09; for A6U U15A, 0.63.

On to A6U U45C, for which the self-cleavage stood at 1.35.

On to A6U C56U, for which the self-cleavage worked out at 0.21.

In the case of U5C A142C, the self-cleavage amounted to 0.98.

For the variant U5C U87C, the self-cleavage came to 0.15.

U5A U39G: the self-cleavage is 0.22. As for U5A U119C, the self-cleavage turned out to be 0.9. For U5A U119A, the self-cleavage is 1.05. Regarding U5C G27A, the self-cleavage was 0.17.

Turning to U5C U85C, the self-cleavage is 0.27.

Turning to U5C U85A, the self-cleavage is 0.21. With A6G U100G the figure was 0.95; with A6C U115A, 0.8; with U5C A22G, 0.57. For U5C G74U the value was 0.38.

For the variant U5A U104C, the self-cleavage was determined as 1.1. With U5C A94G the figure was 0.46. For U5A A64C the value was 0.19.

For the variant U5C A59G, the self-cleavage was found to be 0.32. With U5C U102C the figure was 1; with U5A A129G, 0.79. For A6U U119A the value was 1.74. For U5C G144A the value was 1.39. For the variant U5G A141C, the self-cleavage worked out at 0.56. With A6C U85G the figure was 0.46. With G4U U5C the figure was 0.79; with A6U A129U, 1.52. A6U A124G: the self-cleavage stood at 0.6.

For the variant A6C G35A, the self-cleavage turned out to be 1.5. With A6G A117U the figure was 2.04; with A6G A117G, 1.41; with A6G U104A, 0.73. For A6G A78G the value was 1.15; for U5C A42U, 1.04; for U5C A42G, 0.75. With U5C A77G the figure was 1.49; with U5C A77U, 0.73; with A6G U14A, 0.95.

Regarding U5C A50G, the self-cleavage came out at 1.01. With A6G U96C the figure was 0.41; with A6G U96A, 0.2. With A6U A107G the figure was 1.05; with A6G G74A, 0.4. For the variant U5C A121U, the self-cleavage amounted to 0.86. As to U5C A121G, the self-cleavage was found to be 1.28. For G4C A78G the value was 0.81; for A6U U73A, 1.54; for U5C G97A, 0. With A6G A65G the figure was 0.09; with G4U U119C, 1.31. In the case of A6C U96A, the self-cleavage turned out to be 0.17. With A6G C56U the figure was 0.27; with G7A A57U, 0.07. For U5A G106A the value was 1.14; for G4A U104C, 0.83; for U5C U115A, 0.91. With U5C U115C the figure was 1.27; with A6G A43U, 0.85. For the variant U5C G10A, the self-cleavage amounted to 0.51. With U5G U132C the figure was 1.04; with A6U A42G, 0.58; with U5C G135A, 0.96. With U5C U45C, the self-cleavage is 1.32. On to U5C U45A, for which the self-cleavage turned out to be 0.74. Turning to U5A U81C, the self-cleavage was 0.99. With U5A A43G the figure was 0.76; with U5A G36A, 1.19; with U5C U15C, 1. With G7A A78G the figure was 1.12.

Turning to A6G G144A, the self-cleavage was 1.21. For G4U A30G the value was 1.11. For A6G U109C the value was 0.71; for A6G G93A, 0.14; for U5C G89U, 0.16. With A6G U73C the figure was 1.34; with U5C U46C, 0.99. With A6G U102C, the self-cleavage turned out to be 0.68. Take U5C U109C: the self-cleavage amounted to 0.91. With U5A U12G the figure was 0.6. For U5A U12C the value was 0.74. A6U A78G: the self-cleavage came to 0.77. Turning to U5A U102C, the self-cleavage was 0.95. For A6G A31U the value was 1.01. With A6U A141G the figure was 0.94; with U5A A138C, 0.98. For U5G A107G the value was 0.86; for U5A U73C, 1.41; for U5A U73G, 0.48. On to U5A U73A, for which the self-cleavage is 2.19. For the variant U5A A140U, the self-cleavage was 1.09. On to G4A U115C, for which the self-cleavage was 0.9. For G4A U115A the value was 1.14; for A6U A79G, 0.8; for U5C U119A, 0.98. With A6G C133U the figure was 0.59. As for A6G G48A, the self-cleavage came out at 0.22. With U5C U39A the figure was 0.91; with U5C U39C, 1.05.

As for G7A A22G, the self-cleavage is 1.36.

Turning to G7A A22U, the self-cleavage was determined as 0.73.

As for A6U C133U, the self-cleavage came to 1.04. In the case of A6U G34U, the self-cleavage was 1.02.

Source of the values: the RNAGym collection of RNA variant scans (doi:10.7554/elife.90254).
